Data taken from the supplement of paper PMC11246515.
± gives the standard deviation of the averaged measurements.

Assay: total protein half-life in vivo (active degradation + dilution); higher = more stable protein
[1] = E. coli NCM3722 delta-clpP delta-lon delta-hslV, growth: N-lim chemostat, doubling time 6 h
[2] = E. coli NCM3722 delta-clpP, growth: N-lim chemostat, doubling time 6 h
[3] = E. coli NCM3722 delta-hslV, growth: N-lim chemostat, doubling time 6 h
[4] = E. coli NCM3722 delta-smpB, growth: N-lim chemostat, doubling time 6 h
[5] = wild type E. coli NCM3722, growth: C-lim chemostat, doubling time 6 h
[6] = wild type E. coli NCM3722, growth: C-lim chemostat, doubling time 12 h
[7] = wild type E. coli NCM3722, growth: N-lim chemostat, doubling time 6 h
[8] = wild type E. coli NCM3722, growth: N-lim chemostat, doubling time 12 h
[9] = wild type E. coli NCM3722, growth: P-lim chemostat, doubling time 6 h
[10] = wild type E. coli NCM3722, growth: P-lim chemostat, doubling time 12 h
[11] = E. coli NCM3722 delta-lon, growth: N-lim chemostat, doubling time 6 h
[12] = wild type E. coli NCM3722, growth: C-lim chemostat, doubling time 3 h

Sequence | total protein half-life in vivo [1] [h] | total protein half-life in vivo [2] [h] | total protein half-life in vivo [3] [h] | total protein half-life in vivo [4] [h] | total protein half-life in vivo [5] [h] | total protein half-life in vivo [6] [h] | total protein half-life in vivo [7] [h] | total protein half-life in vivo [8] [h] | total protein half-life in vivo [9] [h] | total protein half-life in vivo [10] [h] | total protein half-life in vivo [11] [h] | total protein half-life in vivo [12] [h]
MACGEFSLIARYFDRVRSSRLDVELGIGDDCALLNIPEKQTLAISTDTLVAGNHFLPDIDPADLAYKALAVNLSDLAAMGADPAWLTLALTLPDVDEAWLESFSDSLFDLLNYYDMQLIGGDTTRGPLSMTLGIHGFVPMGRALTRSGAKPGDWIYVTGTPGDSAAGLAILQNRLQVADAKDADYLIKRHLRPSPRILQGQALRDLANSAIDLSDGLISDLGHIVKASDCGARIDLALLPFSDALSRHVEPEQALRWALSGGEDYELCFTVPELNRGALDVALGHLGVPFTCIGQMTADIEGLCFIRDGEPVTLDWKGYDHFATP [P0AGG0] | 5.68 ± 0.31 | 4.97 ± 0.5 | 5.14 ± 1.4 | 3.99 ± 0.23 | 5.41 ± 0.077 | 10.2 ± 1 | 4.17 ± 0.23 | 7.02 ± 0.95 | 5.41 ± 0.33 | 12.1 ± 0.31 | – | –
MAFKFKTFAAVGALIGSLALVGCGQDEKDPNHIKVGVIVGAEQQVAEVAQKVAKDKYGLDVELVTFNDYVLPNEALSKGDIDANAFQHKPYLDQQLKDRGYKLVAVGNTFVYPIAGYSKKIKSLDELQDGSQVAVPNDPTNLGRSLLLLQKVGLIKLKDGVGLLPTVLDVVENPKNLKIVELEAPQLPRSLDDAQIALAVINTTYASQIGLTPAKDGIFVEDKESPYVNLIVTREDNKDAENVKKFVQAYQSDEVYEAANKVFNGGAVKGW | 5.86 ± 0.32 | 6.85 ± 0.96 | 6.15 ± 0.22 | 5.84 ± 0.36 | 6.52 ± 0.23 | 11.6 ± 0.54 | 5.85 ± 0.088 | 12.69 ± 0.014 | 5.99 ± 0.093 | 13 ± 0.76 | 6.95 ± 0.8 | 3.04 ± 0.097
MSDYQMFEVQVSQVEPLTEQVKRFTLVATDGKPLPAFTGGSHVIVQMSDGDNQYSNAYSLLSSPHDTSCYQIAVRLEENSRGGSRFLHQQVKVGDRLTISTPNNLFALIPSARKHLFIAGGIGITPFLSHMAELQHSDVDWQLHYCSRNPESCAFRDELVQHPQAEKVHLHHSSTGTRLELARLLADIEPGTHVYTCGPEALIEAVRSEAARLDIAADTLHFEQFAIEDKTGDAFTLVLARSGKEFVVPEEMTILQVIENNKAAKVECLCREGVCGTCETAILEGEADHRDQYFSDEERASQQSMLICCSRAKGKRLVLDL | – | – | – | – | – | – | – | – | – | – | – | 3.41
MANYFNTLNLRQQLAQLGKCRFMGRDEFADGASYLQGKKVVIVGCGAQGLNQGLNMRDSGLDISYALRKEAIAEKRASWRKATENGFKVGTYEELIPQADLVINLTPDKQHSDVVRTVQPLMKDGAALGYSHGFNIVEVGEQIRKDITVVMVAPKCPGTEVREEYKRGFGVPTLIAVHPENDPKGEGMAIAKAWAAATGGHRAGVLESSFVAEVKSDLMGEQTILCGMLQAGSLLCFDKLVEEGTDPAYAEKLIQFGWETITEALKQGGITLMMDRLSNPAKLRAYALSEQLKEIMAPLFQKHMDDIISGEFSSGMMADWANDDKKLLTWREETGKTAFETAPQYEGKIGEQEYFDKGVLMIAMVKAGVELAFETMVDSGIIEESAYYESLHELPLIANTIARKRLYEMNVVISDTAEYGNYLFSYACVPLLKPFMAELQPGDLGKAIPEGAVDNGQLRDVNEAIRSHAIEQVGKKLRGYMTDMKRIAVAG | 3.97 ± 0.51 | 3.59 ± 0.64 | 3.31 ± 0.22 | 3.46 ± 0.06 | 5.6 ± 0.11 | 10.3 ± 0.33 | 3.472 ± 0.017 | 5.36 ± 0.15 | 5.67 ± 0.26 | 11.9 ± 0.2 | 3.72 ± 0.042 | 3.035 ± 0.013
MDNLDVICIGAAIVDIPLQPVSKNIFDVDSYPLERIAMTTGGDAINEATIISRLGHRTALMSRIGKDAAGQFILDHCRKENIDIQSLKQDVSIDTSINVGLVTEDGERTFVTNRNGSLWKLNIDDVDFARFSQAKLLSLASIFNSPLLDGKALTEIFTQAKARQMIICADMIKPRLNETLDDICEALSYVDYLFPNFAEAKLLTGKETLDEIADCFLACGVKTVVIKTGKDGCFIKRGDMTMKVPAVAGITAIDTIGAGDNFASGFIAALLEGKNLRECARFANATAAISVLSVGATTGVKNRKLVEQLLEEYEG | 4.78 | 4.22 | 5.06 ± 0.82 | 4.11 ± 0.23 | 5.08 ± 0.33 | 10.1 ± 0.27 | 4.39 ± 0.065 | 7.58 ± 0.17 | 3.97 | 7.77 ± 1.9 | 4.44 ± 0.44 | 3.18 ± 0.49
MSVVISDAWRQRFGGTARLYGEKALQLFADAHICVVGIGGVGSWAAEALARTGIGAITLIDMDDVCVTNTNRQIHALRDNVGLAKAEVMAERIRQINPECRVTVVDDFVTPDNVAQYMSVGYSYVIDAIDSVRPKAALIAYCRRNKIPLVTTGGAGGQIDPTQIQVTDLAKTIQDPLAAKLRERLKSDFGVVKNSKGKLGVDCVFSTEALVYPQSDGTVCAMKATAEGPKRMDCASGFGAATMVTATFGFVAVSHALKKMMAKAARQG | 4.94 ± 0.44 | – | 3.85 ± 1.2 | 5.05 ± 0.58 | 5.77 ± 0.26 | 9.6 ± 0.78 | 4.87 ± 0.32 | 6.86 ± 1.1 | 5.2 ± 0.15 | 11.79 ± 0.028 | – | 3.36 ± 0.59
MNAKIIASLAFTSMFSLSTLLSPAHAEEQEKALNFGIISTESQQNLKPQWTPFLQDMEKKLGVKVNAFFAPDYAGIIQGMRFNKVDIAWYGNLSAMEAVDRANGQVFAQTVAADGSPGYWSVLIVNKDSPINNLNDLLAKRKDLTFGNGDPNSTSGFLVPGYYVFAKNNISASDFKRTVNAGHETNALAVANKQVDVATNNTENLDKLKTSAPEKLKELKVIWKSPLIPGDPIVWRKNLSETTKDKIYDFFMNYGKTPEEKAVLERLGWAPFRASSDLQLVPIRQLALFKEMQGVKSNKGLNEQDKLAKTTEIQAQLDDLDRLNNALSAMSSVSKAVQ | – | – | – | – | – | – | – | – | 1.02 ± 0.21 | 2.63 ± 1.1 | – | –
MSKARRWVIIVLSLAVLVMIGINMAEKDDTAQVVVNNNDPTYKSEHTDTLVYNPEGALSYRLIAQHVEYYSDQAVSWFTQPVLTTFDKDKIPTWSVKADKAKLTNDRMLYLYGHVEVNALVPDSQLRRITTDNAQINLVTQDVTSEDLVTLYGTTFNSSGLKMRGNLRSKNAELIEKVRTSYEIQNKQTQP [P0ADV9] | 5.91 ± 0.18 | 5.86 ± 0.15 | 5.92 ± 0.41 | 6.78 ± 0.24 | 5.98 ± 0.17 | 11.2 ± 1.9 | 5.55 ± 0.17 | 11.1 ± 0.99 | 5.85 ± 0.087 | 11.98 ± 0.014 | 5.82 ± 0.13 | –
MKALHFGAGNIGRGFIGKLLADAGIQLTFADVNQVVLDALNARHSYQVHVVGETEQVDTVSGVNAVSSIGDDVVDLIAQVDLVTTAVGPVVLERIAPAIAKGQVKRKEQGNESPLNIIACENMVRGTTQLKGHVMNALPEDAKAWVEEHVGFVDSAVDRIVPPSASATNDPLEVTVETFSEWIVDKTQFKGALPNIPGMELTDNLMAFVERKLFTLNTGHAITAYLGKLAGHQTIRDAILDEKIRAVVKGAMEESGAVLIKRYGFDADKHAAYIQKILGRFENPYLKDDVERVGRQPLRKLSAGDRLIKPLLGTLEYGLPHKNLIEGIAAAMHFRSEDDPQAQELAALIADKGPQAALAQISGLDANSEVVSEAVTAYKAMQ | 5.84 ± 2 | 4.85 ± 0.21 | 5.32 ± 0.44 | 4.6 ± 0.39 | 6.18 ± 0.63 | 10.8 ± 1.2 | 4.86 ± 0.35 | 8.39 ± 0.13 | 6.02 ± 0.068 | 11.6 ± 0.34 | 4.91 ± 0.1 | –
MSKSNPSEVKLAVPTSGGFSGLKSLNLQVFVMIAAIIAIMLFFTWTTDGAYLSARNVSNLLRQTAITGILAVGMVFVIISAEIDLSVGSMMGLLGGVAAICDVWLGWPLPLTIIVTLVLGLLLGAWNGWWVAYRKVPSFIVTLAGMLAFRGILIGITNGTTVSPTSAAMSQIGQSYLPASTGFIIGALGLMAFVGWQWRGRMRRQALGLQSPASTAVVGRQALTAIIVLGAIWLLNDYRGVPTPVLLLTLLLLGGMFMATRTAFGRRIYAIGGNLEAARLSGINVERTKLAVFAINGLMVAIAGLILSSRLGAGSPSAGNIAELDAIAACVIGGTSLAGGVGSVAGAVMGAFIMASLDNGMSMMDVPTFWQYIVKGAILLLAVWMDSATKRRS [P0AGI4] | – | – | – | 4.37 ± 0.55 | 5.06 ± 1.1 | 9.1 ± 0.54 | – | – | 4.71 ± 0.42 | 8.47 | – | 3.44 ± 0.11
MIRVACVGITVMDRIYYVEGLPTESGKYVARNYTEVGGGPAATAAVAAARLGAQVDFIGRVGDDDTGNSLLAELESWGVNTRYTKRYNQAKSSQSAIMVDTKGERIIINYPSPDLLPDAEWLEEIDFSQWDVVLADVRWHDGAKKAFTLARQAGVMTVLDGDITPQDISELVALSDHAAFSEPGLARLTGVKEMASALKQAQTLTNGHVYVTQGSAGCDWLENGGRQHQPAFKVDVVDTTGAGDVFHGALAVALATSGDLAESVRFASGVAALKCTRPGGRAGIPDCDQTRSFLSLFV | 6.62 ± 1.4 | – | – | – | 5.95 ± 1.4 | 7.92 ± 0.52 | – | – | – | – | – | 2.49 ± 0.19
MNGELIWVLSLLAVAIVLFATGRVRMDAVALFVIVAFALSGTLTVPEVFSGFSDPNVVLIAALFIIGDGLVRTGVATVMGTWLVKVAGNSEIKMLVLLMLTVAGLGAFMSSTGVVAIFIPVVLSVAMRMQTSPSRLMMPLSFAGLISGMMTLVATPPNLVVNSELLREGYHGFSFFSVTPIGLVVLVLGILYMLVMRFMLKGDTQTPQREGWTRRTFRDLIREYRLTGRARRLAIRPGSPMIGQRLDDLKLRERYGANVIGVERWRRFRRVIVNVNGVSEFRARDVLLIDMSAADVDLRQFCSEQLLEPMVLRGEYFSDQALDVGMAEISLIPESELIGKSVREIGFRTRYGLNVVGLKRNGVALEGSLADEPLLLGDIILVVGNWKLIGMLAKQGRDFVALNLPEEVSEASPAHSQAPHAIFCLVLMVALMLTDEIPNPVAAIIACLLMGKFRCIDAESAYKSIHWPSIILIVGMMPFAVALQKTGGVALAVKGLMDIGGGYGPHMMLGCLFVLSAVIGLFISNTATAVLMAPIALAAAKTMGVSPYPFAMVVAMAASAAFMTPVSSPVNTLVLGPGNYSFSDFVKLGVPFTIIVMAVCVVMIPMLFPF [P0AFU2] | – | – | 6.68 ± 0.32 | 6.29 ± 0.45 | 5.46 | – | 5.65 ± 1.7 | 12.4 ± 3.2 | > 8 | 12.8 ± 1.7 | 6.39 ± 0.64 | > 4
MMEGQQHGEQLKRGLKNRHIQLIALGGAIGTGLFLGSASVIQSAGPGIILGYAIAGFIAFLIMRQLGEMVVEEPVAGSFSHFAYKYWGSFAGFASGWNYWVLYVLVAMAELTAVGKYIQFWYPEIPTWVSAAVFFVVINAINLTNVKVFGEMEFWFAIIKVIAVVAMIIFGGWLLFSGNGGPQATVSNLWDQGGFLPHGFTGLVMMMAIIMFSFGGLELVGITAAEADNPEQSIPKATNQVIYRILIFYIGSLAVLLSLMPWTRVTADTSPFVLIFHELGDTFVANALNIVVLTAALSVYNSCVYCNSRMLFGLAQQGNAPKALASVDKRGVPVNTILVSALVTALCVLINYLAPESAFGLLMALVVSALVINWAMISLAHMKFRRAKQEQGVVTRFPALLYPLGNWICLLFMAAVLVIMLMTPGMAISVYLIPVWLIVLGIGYLFKEKTAKAVKAH | 5.89 ± 0.35 | 4.94 ± 0.16 | 5.65 | 5.14 ± 0.68 | 5.81 ± 0.44 | 11.914 ± 0.0083 | 5.68 ± 1.1 | 9.07 ± 0.36 | 5.39 ± 0.41 | 10.1 ± 1.7 | 4.684 ± 0.041 | 2.98
